{"source": "FireProtDB (doi:10.1006/jmbi.1999.2569)", "proteins": {"B1": {"name": "Ribonuclease wild type, P00648 (protein)", "chain": "MMKMEGIALKKRLSWISVCLLVLVSAAGMLFSTAAKTETSSHKAHTEAQVINTFDGVADYLQTYHKLPDNYITKSEAQALGWVASKGNLADVAPGKSIGGDIFSNREGKLPGKSGRTWREADINYTSGFRNSDRILYSSDWLIYKTTDHYQTFTKIR"}}, "settings": "Bacillus amyloliquefaciens; pH 6.3; Thermal; DSC; MES 50 mM; whole UniProt chain shown"}
{"protein": "B1", "values": [{"measurement": "Tm", "result": 54.1, "unit": "°C"}]}
